Experimental data from publication PMC6555802.
pKd: −log10 of the molar value.

Molecular target: CHML (fluorescence titration) (human) (UniProt P26374)
Assay: other fluorescence titration; fluorescence titration assay (Supplementary Fig. 8); conditions not stated in the text shown

CHML (fluorescence titration) (human), sequence (P26374 whole entry): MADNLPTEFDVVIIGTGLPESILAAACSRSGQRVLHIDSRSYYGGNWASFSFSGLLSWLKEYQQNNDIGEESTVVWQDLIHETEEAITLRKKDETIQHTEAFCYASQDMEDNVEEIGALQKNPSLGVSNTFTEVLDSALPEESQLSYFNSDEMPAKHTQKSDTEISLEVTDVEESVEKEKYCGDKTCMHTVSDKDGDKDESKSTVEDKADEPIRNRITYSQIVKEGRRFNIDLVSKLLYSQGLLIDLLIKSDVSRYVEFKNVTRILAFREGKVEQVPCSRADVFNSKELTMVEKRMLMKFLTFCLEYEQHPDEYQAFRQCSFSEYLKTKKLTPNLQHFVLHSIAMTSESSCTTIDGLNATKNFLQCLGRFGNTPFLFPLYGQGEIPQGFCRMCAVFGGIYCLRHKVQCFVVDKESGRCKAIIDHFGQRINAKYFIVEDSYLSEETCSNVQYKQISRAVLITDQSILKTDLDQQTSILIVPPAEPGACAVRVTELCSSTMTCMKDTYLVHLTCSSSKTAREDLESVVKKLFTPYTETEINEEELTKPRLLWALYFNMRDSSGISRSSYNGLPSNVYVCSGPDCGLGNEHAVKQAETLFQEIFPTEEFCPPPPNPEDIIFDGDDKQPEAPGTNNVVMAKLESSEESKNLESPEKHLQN

Rab7A (fluorescence titration) (from UniProt P51149 1-207) (natural protein)
pKd: 8.11
